Here are results for three molecules from patent US20260049151A1 (SHENGHE CHINA BIOPHARMACEUTICAL, published 2026).

For orientation: EC50 (read off the curve) means the concentration at which the effect is half-maximal.

Where two headings read alike, the source gives them in different places.

Assay [1] concerns the target T1, Human-TNFR2-His (human, UniProt P20333 23-257).
T1 construct: Bought protein; also called human TNFR2 protein; TNFR2 protein; not shown: His tag
T1 sequence (looked up): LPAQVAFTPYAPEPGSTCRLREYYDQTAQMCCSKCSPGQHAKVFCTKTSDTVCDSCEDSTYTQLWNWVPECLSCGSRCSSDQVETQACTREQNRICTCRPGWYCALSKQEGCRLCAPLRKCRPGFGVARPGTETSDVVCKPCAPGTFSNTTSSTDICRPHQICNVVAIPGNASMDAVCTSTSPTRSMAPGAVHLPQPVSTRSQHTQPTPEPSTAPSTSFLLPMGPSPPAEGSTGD
As to the kind of experiment: ELISA: Human-TNFR2-His coated (0.1 ug/mL), antibody titrated, goat anti-human IgG Fc detection (Example 2). The procedure: (§1) Human-TNFR2-His (manufacturer: SINO, CAT: 10417-H08H, LOT: LC15NO0412) was diluted to 0.1 μg/mL with a coating solution (1×PBS, pH7.4), and coated in 96-well ELISA plate at 100 µL/well overnight at 4° C. The coating solution was poured off. Each well was washed with 1×PBST at 300 μL, washed 4 times with a plate washer, and patted dry on a flat paper. It was blocked with 3% skim milk powder at 300 μL/well, and incubated at 37° C. for 1 h. The blocking solution was poured off, washed 4 times with a plate washer, and patted dry on a flat paper. Negative control and positive control were set up. […] The positive control and antibody were diluted to 10 μg/mL with 3% skim milk powder as the starting concentration, and then diluted by 3-fold gradient (11 gradients in total), and a blank well was set up and only the diluent was added. It was incubated at 37° C. for 1 h at 100 μL/well. The liquid in the well was discarded, washed 4 times with a plate washer, and patted dry on a flat paper. Goat anti-human IgG Fc was diluted with 3% skim milk powder at 1:10000, and incubated at 37° C. for 1 h at 100 μL/well. It was washed 6 times with a plate washer, and patted dry on a flat paper. TMB color developing solution was added at 100 μL/well, and wrapped with aluminum foil. Color development was performed at 37° C. in the dark for 8 min. Termination solution 1M HCl was added to terminate the color development reaction at 100 μL/well. Readings were taken at 450 nm on an ELISA reader.
(In general: An ELISA detects its analyte on a solid surface through an enzyme-linked reagent.)

Assay [2] deals with T2, Human 4-1BB His (human, UniProt Q07011 24-186).
T2 construct: Bought protein; lots 198-2146F1-W6 and 2407c-214FF1-YC; also called human 4-1BB protein; 4-1BB protein; not shown: His tag
T2 sequence (Q07011 24-186 limits assumed): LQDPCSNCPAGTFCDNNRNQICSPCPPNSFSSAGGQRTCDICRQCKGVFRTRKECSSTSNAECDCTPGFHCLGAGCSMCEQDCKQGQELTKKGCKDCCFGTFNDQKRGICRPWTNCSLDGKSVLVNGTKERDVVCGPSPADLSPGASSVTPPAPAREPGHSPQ
As to the kind of experiment: ELISA: Human 4-1BB His coated (0.2 ug/mL), antibody titrated, goat anti-human IgG Fc detection (Example 3). The protocol:
(§2) Human 4-1BB His (manufacturer: Acro, CAT: 41B-H5258, LOT: 198-2146F1-W6) was diluted to 0.2 μg/mL with a coating solution (1×PBS, pH7.4), and coated in 96-well ELISA plate at 100 μL/well overnight at 4° C. The coating solution was poured off. Each well was washed with 1×PBST at 300 μL, washed 4 times with a plate washer, and patted dry on a flat paper. It was blocked with 3% skim milk powder at 300 μL/well, and incubated at 37° C. for 1 h. The blocking solution was poured off, washed 4 times with a plate washer, and patted dry on a flat paper. Negative control and positive control were set up. […] The variable region of the antibody sequence of the positive control consists of SEQ ID NO: 15 and SEQ ID NO: 19, with the addition of the constant region of human IgG1 (SEQ ID NO: 46 and SEQ ID NO: 47). The positive control and antibody were diluted to 10 μg/mL with 3% skim milk powder as the starting concentration, and then diluted by 3-fold gradient (11 gradients in total), and a blank well was set up and only the diluent was added. It was incubated at 37° C. for 1 h at 100 μL/well. The liquid in the well was discarded, washed 4 times with a plate washer, and patted dry on a flat paper. Goat anti-human IgG Fc was diluted with 3% skim milk powder at 1:20000, and incubated at 37° C. for 1 h at 100 μL/well. It was washed 6 times with a plate washer, and patted dry on a flat paper. TMB color developing solution was added at 100 μL/well, and wrapped with aluminum foil. Color development was performed at 37° C. in the dark for 8 min. Termination solution 1M HCl was added to terminate the color development reaction at 100 μL/well. Readings were taken at 450 nm on an ELISA reader.

The target of assay [3] is T2, Human 4-1BB His. Described as above. This is another data set of the same source.
In assay [4] the target is T1, Human-TNFR2-His. As to the kind of experiment: ELISA: Human-TNFR2-His coated (0.1 ug/mL), antibody titrated, goat anti-human IgG Fc detection (Example 2). The protocol:
as §1
The source holds these as a separate data set.

Assay [5] concerns the target T2, Human 4-1BB His. As to the kind of experiment: ELISA: Human 4-1BB His coated (0.2 ug/mL), antibody titrated, goat anti-human IgG Fc detection (Example 3). The protocol:
as §2
The source holds these as a separate data set.

B1: Antibody E1 (bispecific antibody, human IgG1, kappa)
light: DIVMTQSPATLSVSPGERATLSCKASQNVGSNVDWYQQKPGQSPRVLIYKASIRYTGIPARFSGSGSGTEFTLTISILQSEDFAVYFCMQSKSYPITFGQGTKLEIKRTVAAPSVFIFPPSDEQLKSGTASVVCLLNNFYPREAKVQWKVDNALQSGNSQESVTEQDSKDSTYSLSSTLTLSKADYEKHKVYACEVTHQGLSSPVTKSFNRGEC
heavy: not shown
notes: IgG1 subtype; full-length TNFR2 antibody with 4-1BB scFv at the C-terminus of the heavy chains
In the case of B1, the “EC50 (read off the curve)” value is around 90 pM with Human-TNFR2-His [1], around 200 pM in the assay with Human 4-1BB His [2] and around 200 pM with Human 4-1BB His [3].

B2: Antibody H (bispecific antibody, human IgG1, kappa)
light: QVQLQESGPGLVKPSETLSLTCTVSGSSLTSYGVHWVRQPPGKCLEGLGVIWPGGSTNYNSALMSRVTISKDNSKSQVSLKMSSLTAADTAVYYCARVTGTWYFDVWGQGTTVTVSSGGGGSGGGGSGGGGSDIQMTQSPSSLSASLGDRVTISCSASQGISNYLNWYQQKPDGTVKLLIYYTSTLHSGVPSRFSGSGSGTDYTLTISSLQPEDIATYYCQQYSKLPWTFGCGTKLEIKGGGGSGGGGSGGGGSDIVMTQSPATLSVSPGERATLSCKASQNVGSNVDWYQQKPGQSPRVLIYKASIRYTGIPARFSGSGSGTEFTLTISILQSEDFAVYFCMQSKSYPITFGQGTKLEIKRTVAAPSVFIFPPSDEQLKSGTASVVCLLNNFYPREAKVQWKVDNALQSGNSQESVTEQDSKDSTYSLSSTLTLSKADYEKHKVYACEVTHQGLSSPVTKSFNRGEC
heavy: not shown
notes: IgG1 subtype; full-length TNFR2 antibody with 4-1BB scFv at the N-terminus of the light chains
Regarding B2, in the assay with Human-TNFR2-His [4], the “EC50 (read off the curve)” value is around 80 pM.

B3: Antibody M1 (bispecific antibody, human IgG1, kappa)
light: DIQMTQSPSSLSASLGDRVTISCSASQGISNYLNWYQQKPDGTVKLLIYYTSTLHSGVPSRFSGSGSGTDYTLTISSLQPEDIATYYCQQYSKLPWTFGGGTKLEIKRTVAAPSVFIFPPSDEQLKSGTASVVCLLNNFYPREAKVQWKVDNALQSGNSQESVTEQDSKDSTYSLSSTLTLSKADYEKHKVYACEVTHQGLSSPVTKSFNRGEC
heavy: not shown
notes: IgG1 subtype; full-length 4-1BB antibody with TNFR2 VHH at the N-terminus of the heavy chains
Regarding B3, in the assay with Human 4-1BB His [5], the “EC50 (read off the curve)” value is around 90 pM.
